# Data: patent US20030148264A1, “Phage displayed PDZ domain ligands” (GENENTECH, INC., priority 2001, published 2003)
# Like-named read-outs stand apart in the source and are kept apart here. Where a SMILES comes first, the peptide text is derived from it. Where no end group is shown, it is not given here.
# T1: MAGI 3 PDZ2 (Homo sapiens, UniProt Q5TCQ9)
# T1 sequence (Q5TCQ9 584-707 isoform Q5TCQ9-2): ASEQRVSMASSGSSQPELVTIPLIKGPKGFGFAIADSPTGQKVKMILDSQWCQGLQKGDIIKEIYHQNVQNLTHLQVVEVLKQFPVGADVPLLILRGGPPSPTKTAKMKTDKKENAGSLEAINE
# T2: Human Scribble (KIAA0147, NP_056171.1) PDZ2 (aa 788-913) (Homo sapiens, UniProt Q14160)
# T2 construct: Human Scribble (KIAA0147, NP_056171.1) PDZ2 (aa 788-913); GST; made in house
# T2 sequence (Q14160 788-913 isoform Q14160-2): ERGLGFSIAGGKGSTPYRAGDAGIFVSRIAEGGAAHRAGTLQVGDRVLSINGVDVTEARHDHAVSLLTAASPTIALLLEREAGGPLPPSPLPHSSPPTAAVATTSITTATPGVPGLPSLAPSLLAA
# Columns and labels:
# [1] = target: T1, MAGI 3 PDZ2; assay: Competition ELISA, peptide blocking PDZ domain binding to immobilized peptide; parameters: made in house; host or cells: E. coli
# From the text: (§1) Many methods are known and can be used to identify the binding affinities of PDZ domain binding ligands (e.g. peptides, proteins, small mollecules, etc.); for example, binding affinities can be determined as IC50 values using competition ELISAs. The IC50 value is defined as the concentration of ligand which blocks 50% of PDZ domain binding to a ligand. For example, in solid phase assays, assay plates may be prepared by coating microwell plates (preferably treated to efficiently absorb protein) with neutravidin, avidin or streptavidin. Non-specific binding sites are then blocked through addition of a solution of bovine serum albumin (BSA) or other proteins (for example, nonfat milk) and then washed, preferably with a buffer containing a detergent, such as Tween-20. A biotinylated known PDZ-domain ligand (for example, the phage peptides or cognate protein as fusions with GST or other such molecule to facilitate purification and detection) is prepared and bound to the plate. Serial delutions of the ligand to be tested with a PDZ domain polypeptide arc prepared and contacted with the bound ligand. The plate coated with the immobilized ligandis washed before adding each binding reaction to the wells and briefly incubated. After further washing, the binding reactions are detected, often with an antibody recognizing the non-PDZ fusion partner and a labeled (such as horseradish peroxidase (HRP), alkaline phosphatase (AP), or a fluorescent tag such as fluorescein) secondary antibody recognizing the primary antibody. The plates are then developed with the appropriate substrate (depending on the label) and the signal quantified, such as using a spectrophotometric plate reader. The absorption signal may be fit to a binding curve using a least squares fit. Thus the ability of the various ligands to inhibit PDZ domain from binding a known PDZ-domain ligand can be measured.
# Prokaryotic: The ERBIN PDZ domain (aa. 1217-1371 of SEQ ID NO:201) or MAGI-3 PDZ 2 (aa. 584-707 of SEQ ID NO:200) were cloned into the EcoR 1/Not 1 or BamH 1/Not 1 sites of pGEX 6P-1 and pGEX 4T-3 E. coli expression vectors (Pharmacia) respectively. Expression and affinity purification of E coli expressed GST-proteins was performed as recommended by the manufacturer (Pharmacia).
# (§2) Peptides corresponding to the selected sequences were synthesized and assayed for binding (Table 2). […] The data also confirmed that the minimal tetrapeptide selectants from the PDZ2 sort bind PDZ2 with high affinity. […] It appears that this large difference in binding affinity is attributable to the residue at P(−1), which is a Trp in the selected peptide as opposed to a Lys in PTEN/MMAC (compare HTQITWV with HTQITKV (SEQ ID NO:220), Table 2; The IC50 values are the concentrations of peptide that blocked 50% of PDZ domain binding to immobilized peptide in an ELISA).
# [2] = target: T3, MAGI 3 PDZ3 (Homo sapiens, UniProt Q5TCQ9); assay: as above
# T3 construct: PDZ2 and PDZ3 were purified as glutathione S-transferase (GST) fusions from E coli; GST; made in house; host or cells: E. coli
# T3 sequence (Q5TCQ9 726-808 limits assumed): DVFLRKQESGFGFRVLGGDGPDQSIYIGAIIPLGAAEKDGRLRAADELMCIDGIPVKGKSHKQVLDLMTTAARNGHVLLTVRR
# From the text: as §1, §2
# [3] = target: GST-MAGI-3 PDZ 2 (aa. 584-707 of SEQ ID NO:200) (human) [GST: P08515]; assay: competition ELISA: peptide blocks GST-PDZ binding to immobilized peptide
# GST-MAGI-3 PDZ 2 (aa. 584-707 of SEQ ID NO:200) (human) [GST: P08515], sequence (P08515 whole entry): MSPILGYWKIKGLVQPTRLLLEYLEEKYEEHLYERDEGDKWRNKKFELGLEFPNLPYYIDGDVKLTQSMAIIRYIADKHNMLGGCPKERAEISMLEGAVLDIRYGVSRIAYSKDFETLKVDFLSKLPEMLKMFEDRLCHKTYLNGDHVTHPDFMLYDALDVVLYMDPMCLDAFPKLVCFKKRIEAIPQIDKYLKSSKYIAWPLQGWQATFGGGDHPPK
# [4] = target: GST-MAGI-3 PDZ 2 (aa. 584-707 of SEQ ID NO:200) (human) [GST: P08515]; assay: alanine scan, competition ELISA
# [5] = system: Magi1 PDZ3; assay: IC50 (nM) | Magi1 PDZ3 | 0.625 nM | B01-87 | Bio-GGWFLDV (SEQ ID NO 686) | 15.62 nM
# Description: (§3) Table printed on a drawing sheet, Fig. 12
# Head of the field: IC50 (nM) | Magi1 PDZ3 | 0.625 nM | B01-87 | Bio-GGWFLDV (SEQ ID NO 686) | 15.62 nM
# (§4) The patent's description of the figure: FIG. 12. IC50 values indicating binding affinities of various peptides to PDZ domains
# (§5) First copying reader's note: The first column (three lines per block: protein, accession, PDZ domain) is treated as one cell spanning its block; an empty ruled row above the IC50/SD head is left out; #### cells are spreadsheet overflow marks as printed; several heads and cells are cut off at the left by the print (ample, eptide No, EQ ID NO).
# Where the first naming reader finds the target: head: IC50 (nM) | Magi1 PDZ3 | 0.625 nM | B01-87
# [6] = target: T4, Erbin PDZ (Homo sapiens, UniProt Q96RT1); assay: IC50 (nM) | Erbin PDZ | 2 nM | PDZ501 | Bio-Ac-GGWETWV (SEQ ID NO 687) | 37 nM
# T4 construct: made in house; host or cells: E. coli
# T4 sequence (Q96RT1 1258-1412): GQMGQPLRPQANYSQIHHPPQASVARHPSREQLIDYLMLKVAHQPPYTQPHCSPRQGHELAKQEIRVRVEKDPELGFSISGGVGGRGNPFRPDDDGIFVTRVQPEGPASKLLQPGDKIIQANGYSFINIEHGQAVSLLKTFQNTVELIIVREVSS
# Description: as §3, §4, §5
# Where the first naming reader finds the target: head: IC50 (nM) | Erbin PDZ | 2 nM | PDZ501
# [7] = target: T2, Human Scribble (KIAA0147, NP_056171.1) PDZ2 (aa 788-913); assay: Carboxyl-terminal phage display binding selection; settings: number of phage-selected clones with this sequence, siblings counted as individuals
# From the text: Phage display technology was further employed essentially as described above, with minor modifications, to select ligands of a variety of PDZ domains (including additional, independent rounds of selection for ERBIN PDZ and MAGI3 PDZ3). Briefly, peptide ligands were selected from pools of randomized peptides. […] The peptides were fused to the M13 phage major coat proteins such that the C-termini of the randomized peptides were free and available for binding. PDZ domains were utilized as their GST-fusions (referred to in this Example simply as “PDZ domains”). The particular amino acids comprising each PDZ domain target are indicated in the heading of Tables 11-29.
# Peptide ligands were selected and identified for 17 (18 including ERBIN) PDZ domains. […] At the bottom of each table, the occurrence of each amino acid residue is expressed as a percentage of the total number of residues in the relevant position. Siblings (peptides with identical DNA that appear as more than one copy) were counted as individuals. The numbers for occurrence were corrected for codon usage. The relative codon usage is indicated after each amino acid in the header of the bottom section of each table. “n” refers to the number of sequences (siblings counted as individuals) on which the occurrence value is based; this number is also shown as normalized with respect to codon usage.
# [8] = target: T5, hZO1 PDZ1 (Homo sapiens, UniProt Q07157); assay: IC50 (nM) | hZO1 PDZ1 | 5 nM | B01-88 | Bio-GGWRWTTWL (SEQ ID NO: 684) | 36 nM
# T5 construct: Human ZO1 (NM_003257) PDZ1; GST; made in house
# T5 sequence (Q07157 23-110): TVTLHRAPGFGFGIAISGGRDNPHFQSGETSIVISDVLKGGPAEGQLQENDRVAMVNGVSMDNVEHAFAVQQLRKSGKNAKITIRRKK
# Description: Table printed on a drawing sheet, FIG. 12A
# Head of the field: IC50 (nM) | hZO1 PDZ1 | 5 nM | B01-88 | Bio-GGWRWTTWL (SEQ ID NO: 684) | 36 nM
# as §4
# First copying reader's note: Upper left part of a table split over FIG. 12A-12D; further receptor columns and further peptides are on the other sheets.
# (§6) Where the first naming reader finds the target: head: IC50 (nM) | hZO1 PDZ1 | 5 nM | B01-88
# [9] = target: T5, hZO1 PDZ1; assay: IC50 (nM) | hZO1 PDZ1 | 5 nM | B01-88 | Bio-GGWRWTTWL (SEQ ID NO 684) | 36 nM
# Description: as §3
# Head of the field: IC50 (nM) | hZO1 PDZ1 | 5 nM | B01-88 | Bio-GGWRWTTWL (SEQ ID NO 684) | 36 nM
# as §4, §5, §6
# [10] = target: T6, ERBIN PDZ-GST fusion protein (aa. 1217-1371 of SEQ ID NO:201) (human, UniProt P08515 1-218 = GST); assay: competition ELISA: ERBIN PDZ-GST binding to immobilized biotin-WETWV
# T6 sequence (P08515 whole entry, the tested form may be a part): as the sequence (P08515 whole entry) above
# [11] = target: T6, ERBIN PDZ-GST fusion protein (aa. …); assay: as above; remark: listed apart in the source
# [12] = target: T6, ERBIN PDZ-GST fusion protein (aa. …); assay: as above; remark: listed apart in the source
# [13] = MAGI 3 PDZ2, concentration of peptide that blocked 50% of PDZ domain binding to immobilized peptide in an ELISA, read-out: IC50 (μM) PDZ2
# [14] = MAGI 3 PDZ3, concentration of peptide that blocked 50% of PDZ domain binding to immobilized peptide in an ELISA, read-out: IC50 (μM) PDZ3
molecule,measurement,setting,value
"CC[C@H](C)[C@H](N)C(=O)N[C@H](C(=O)N[C@@H](CCCCN)C(=O)N[C@H](C(=O)O)C(C)C)[C@@H](C)O [ITKV, reference compound] (H-ITKV-OH; N-terminus and C-terminus assumed)",IC50,"[1]; MAGI 3 PDZ2 domain, read-out: IC50",200 µM
ASKVTWV [ASKVTWV],IC50,[2],> 1000 µM
same,IC50,[1],0.8 µM
ASWV (peptide),IC50,[3],35 µM
same,fold reduction in binding against CSWV,[4],25 fold
"AWFDTDL [2 | 01-61, SEQ ID NO 641 AWFDTDL]",IC50,[5],18200 nM
same,IC50,[6],25400 nM
"AWFETWV [phage-selected peptide, Scribble PDZ2]",occurence,[7],2
"Ac-FETDL [1 | 01-104, SEQ ID NO 640 N^AC-FETDL]",IC50,[5],91500 nM
same,IC50,[6],101000 nM
"Ac-FETWL [3 | 01-08, SEQ ID NO: 642: N^AC-FETWL]",IC50,[8],10400 nM
"Ac-WFLDA [42 | 01-22, SEQ ID NO 681 NAC-WFLDA]",IC50,[5],410 ± 72 nM
same,IC50,[9],21800 nM
"Ac-WFLWI [34 | 01-12, SEQ ID NO 673 NAC-WFLWI]",IC50,[5],34700 nM
same,IC50,[6],> 400000 nM
"Ac-WRWTTWL [9 | 01-103, SEQ ID NO: 648: N^AC-WRWTTWL]",IC50,[8],27 nM
"Ac-WRWTTWV [13 | 01-31, EQ ID NO 652 N^AC-WRWTTWV]",IC50,[5],32600 nM
same,IC50,[6],789 ± 62 nM
"Ac-WRWTTWV [13 | 01-31, SEQ ID NO: 652: N^AC-WRWTTWV]",IC50,[8],0.0443 nM
CAWV (peptide),IC50,[3],7.3 µM
same,fold reduction in binding against CSWV,[4],5 fold
CSAV (peptide),IC50,[3],200 µM
same,fold reduction in binding against CSWV,[4],> 100 fold
CSWA (peptide),IC50,[3],400 µM
same,fold reduction in binding against CSWV,[4],> 100 fold
DGICSWV [DGICSWV],IC50,[2],> 1000 µM
same,IC50,[1],0.3 µM
EQ ID NO 648 N^AC-WRWTTWL (Ac-WRWTTWL) [9 | 01-103],IC50,[5],180 ± 59 nM
EQ ID NO 649 N^AC-YRWTTWL (Ac-YRWTTWL) [10 | 01-28],IC50,[5],32600 nM
"ESVRGFDTWV [phage-selected peptide, Scribble PDZ2]",occurence,[7],1
GCGCSWV,IC50,[1]; [13],2 µM
"HRVRETWV [phage-selected peptide, Scribble PDZ2]",occurence,[7],21
"HTQITKV [HTQITKV, reference compound]",IC50,[2]; [14],> 1000 µM
same,IC50,[1]; [13],200 µM
HTQITWV [HTQITWV],IC50,[1]; [13],0.3 µM
"LTVRETWV [phage-selected peptide, Scribble PDZ2]",occurence,[7],4
"RKSRTFETWV [phage-selected peptide, Scribble PDZ2]",occurence,[7],1
"RSRYRFTDV [phage-selected peptide, Scribble PDZ2]",occurence,[7],6
SEQ ID NO 671 NAC-WFLDI [32 | 01-14],IC50,[5],408 ± 50 nM
"STGKFFDTWV [phage-selected peptide, Scribble PDZ2]",occurence,[7],1
TRWWFDI-NH2 [TRWWFDI-NH2],IC50,[2]; [14],300 µM
TRWWFDI-OH [TRWWFDI],IC50,[2]; [14],0.9 µM
same,IC50,[1]; [13],> 1000 µM
Ac-WETAV [Ac-WETAV],IC50,[10],34 µM
same,fold less potent than Ac-WETWV,[10],69.3 fold
same,IC50,[11],34 µM
same,fold less potent than Ac-WETWV,[11],69.3 fold
Ac-WETFV [Ac-WETFV],IC50,[11],14.5 µM
same,fold less potent than Ac-WETWV,[11],295 fold
Ac-WETYV [Ac-WETYV],IC50,[11],42.5 µM
same,fold less potent than Ac-WETWV,[11],86.7 fold
Ac-WESWV [Ac-WESWV],IC50,[12],2.5 µM
same,fold less potent than Ac-WETWV,[12],5.2 fold
Ac-WEVWV [Ac-WEVWV],IC50,[12],4.8 µM
same,fold less potent than Ac-WETWV,[12],9.8 fold
Ac-WDTWV [Ac-WDTWV],IC50,[12],1.7 µM
same,fold less potent than Ac-WETWV,[12],3.4 fold
